The results in this text go back to patent US20240360189A1.

This experiment concerns the target SLAMF7 (CS1, CD319, CRACC) on NK92MI cells (human) (UniProt Q9NQ25). Put plainly: flow cytometry, cross-linking of violet-stained NK92MI cells with PKH26-stained P. aeruginosa RP73; controls without molecule 0.29 and 0.31.

B1: BiKE B′: ELO scFv [(RTX VL 10-first amino-acids/ELO (VL-VH)] anti-SLAMF7.C4bpβ.scFv (VL-VH) anti-Psl.FLAG (bispecific antibody, not shown: small tags and cut ends)
chain: RSQIVLSQSPAILSASVGDRVTITCKASQDVGIAVAWYQQKPGKVPKLLIYWASTRHTGVPDRFSGSGSGTDFTLTISSLQPEDVATYYCQQYSSYPYTFGQGTKVEIKGGSSRSSSSGGGGSGGGGEVQLVESGGGLVQPGGSLRLSCAASGFDFSRYWMSWVRQAPGKGLEWIGEINPDSSTINYAPSLKDKFIISRDNAKNSLYLQMNSLRAEDTAVYYCARPDGNYWYFDVWGQGTLVTVSSASGGGGSSGGGGSSGGGGSIQEAPKPECEKALLAFQESKNLCEAMENFMQQLKESGMTMEELKYSLELKKAELKAKLLSGGGGSSGGGGSSGGGGSDIQLTQSPSSLSASVGDRVTITCRASQSIRSHLNWYQQKPGKAPKLLIYGASNLQSGVPSRFSGSGSGTDFTLTISSLQPEDFATYYCQQSTGAWNWFGCGTKVEIKGGGGSGGGGSGGGGSGGGGSQVQLQESGPGLVKPSETLSLTCTVSGGSISPYYWTWIRQPPGKCLELIGYIHSSGYTDYNPSLKSRVTISGDTSKKQFSLKLSSVTAADTAVYYCARADWDRLRALDIWGQGTMVTVSS
modifications: Covalent homodimer through the cysteines of the C4bp beta fragment; one chain is given.
Take B1: the % colocalization (violet+PKH26+) was determined as 1.85%.
